Two molecules from article PMC7145319 (2019) can be followed below.

In the experiment the target is T1, MOG35-55 peptide on I-Ab (mouse).
T1 peptide: GWYRSPFSRVV
Kind of experiment: activation reporter or marker.

B1: EAE3-CD4 (TCR)
alpha TRAV14D-1 TRAJ43 CDR3: CAASGANNNNAPRF
beta TRBV3 TRBJ2-5 CDR3: CASSLEGHQDTQYF
Take B1: the binding result was “recognises”.

B2: EAE2-CD4 (TCR)
alpha TRAV12-1 TRAJ23 CDR3: CALRNYNQGKLIF
beta TRBV16 TRBJ1-4 CDR3: CASSLDQGWDERLFF
Regarding B2, the binding result is reported as “recognises”.
